Experimental findings from patent publication US10669350B2, “Antigen-binding constructs that bind to and inhibit catalase and/or superoxide dismutase as well as pharmaceutical compositions containing them for tumor therapy” (priority 2015, dated 2020) are described below.

The target in test [1] is T1, human catalase (Homo sapiens, UniProt P04040).
T1 sequence (P04040 2-527 limits assumed): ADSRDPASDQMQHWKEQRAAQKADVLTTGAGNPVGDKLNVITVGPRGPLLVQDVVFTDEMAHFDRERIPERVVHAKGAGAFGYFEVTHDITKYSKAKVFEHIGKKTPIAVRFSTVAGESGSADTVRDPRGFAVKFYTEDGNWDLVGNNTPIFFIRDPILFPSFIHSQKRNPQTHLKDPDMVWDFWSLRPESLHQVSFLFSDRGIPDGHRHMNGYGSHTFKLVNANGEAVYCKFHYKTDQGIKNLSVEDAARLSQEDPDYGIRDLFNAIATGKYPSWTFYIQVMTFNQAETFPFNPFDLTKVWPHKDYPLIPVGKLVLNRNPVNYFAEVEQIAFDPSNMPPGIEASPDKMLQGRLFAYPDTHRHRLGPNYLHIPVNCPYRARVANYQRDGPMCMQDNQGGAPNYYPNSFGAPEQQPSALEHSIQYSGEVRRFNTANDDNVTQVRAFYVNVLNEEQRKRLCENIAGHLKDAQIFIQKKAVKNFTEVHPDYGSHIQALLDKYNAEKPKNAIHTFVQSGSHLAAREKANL
Kind of test: ELISA selection of clones binding to human catalase. From the text: […] […] In a second run, by employing the cell culture system described by Heinzelmann and Bauer (Heinzelmann S. and Bauer G. Multiple protective functions of catalase against intercellular apoptosis-inducing ROS signaling of human tumor cells, Biol. Chem. 391, 675-693, 2010) it was checked which one of the single domain VHH fragments binding to catalase actually results in an inhibition of the catalase, what is expressed as ROS-dependent apoptosis induction in the cells. […] The clones underlying the single domain VHH fragments were sequenced by standard methods and the amino acid sequence was determined therefrom.

The target in test [2] is T1, human catalase. Kind of test: Check for inhibition (neutralization) of catalase, expressed as ROS-dependent apoptosis induction in cell culture system. Type of test: cell-based. More on the design: catalase-neutralizing single domain VHH fragments only neutralize the membranous catalase of tumor cells; endogenous in cells; host or cells: MKN-45 human gastric carcinoma cells. An excerpt:
For the determination of the neutralizing effect of single domain VHH or Fab fragments directed against catalase a test system is suitable that is based on the apoptosis-inducing effect of H2O2 and the degradation of H2O2 by catalase. Here, as the cellular test system both non-malignant and malignant cells can be employed. It is only required that apoptosis induction is quantitatively determinable in the selected cell system. As the H2O2 source, H2O2-generating glucose oxidase (GOX) is preferred over the direct addition of H2O2, because the continuous production of H2O2 by GOX (by using glucose from the culture medium of the cells) allows a very precise adjustment of the H2O2 flux. The test system is based on the inhibition of the apoptosis induction by GOX mediated by catalase and the restoration of the apoptosis induction by catalase-neutralizing single domain VHH or Fab fragments. […] For that, in general depending on the cell system, GOX concentrations between 0.1 and 40 mU/ml are required. In a second step, the concentration of human catalase is determined that is just sufficient to abolish the effect achieved by GOX. […] After successful determination of the suitable concentrations of GOX and catalase then the actual experiment for the determination of the catalase-neutralizing effect of single domain VHH or Fab fragments can be performed. For that, the selected catalase concentration is pre-incubated for 20 minutes with selected concentrations of the single domain VHH or Fab fragments to be tested. Subsequently, said mixture together with the concentration of GOX determined to be suitable is added to the cells and apoptosis induction is measured. A reliable neutralizing effect of the single domain VHH or Fab fragments is obtained if the inhibiting effect of the catalase on the GOX-mediated apoptosis induction was abolished by at least 90%, i.e. if 90% of the apoptosis induction value is achieved that is shown in control preparations without addition of catalase. If there is achieved an abolition of the inhibiting effect of catalase of at least 50% there may be assumed a significant inhibiting effect of the tested single domain VHH or Fab fragment. […]
[…] In a second run, by employing the cell culture system described by Heinzelmann and Bauer (Heinzelmann S. and Bauer G. Multiple protective functions of catalase against intercellular apoptosis-inducing ROS signaling of human tumor cells, Biol. Chem. 391, 675-693, 2010) it was checked which one of the single domain VHH fragments binding to catalase actually results in an inhibition of the catalase, what is expressed as ROS-dependent apoptosis induction in the cells. […] The clones underlying the single domain VHH fragments were sequenced by standard methods and the amino acid sequence was determined therefrom.

Test [3] relates to MKN-45 gastric carcinoma cells. Kind of test: Standard preparation for autocrine ROS-controlled apoptosis induction in tumor cells (percentage of apoptotic cells). Type of test: cell-based, human. As to the method: The experiments shown in FIG. 13-24 were carried out with a standard preparation for the apoptosis induction that is based on the method performed in Heinzelmann and Bauer 2010. The tumor cells used were taken from an optimally growing semi-sealed culture, centrifuged and placed in fresh medium. The test was performed in 96-well cell culture plates with 12 500 MKN-45 cells/100 μl medium or 10 000 SHEP cells/100 μl medium. MKN-45 cells grow in suspension, SHEP cells are adherent. The tests with SHEP cells were started as soon as the cells had grown on. By adding increasing concentrations of single domain VHH fragments that either inhibit catalase or SOD the protection of the tumor cells from their own ROS signaling was annulled so that based on the cell-owned extracellular superoxide anion production the NO/peroxynitrite signal path and the HOCl path (with MKN-45 cells) or in case of the SHEP cells only the NO/peroxynitrite path could start when the cells were incubated at 37° C. The analysis of the signal paths was carried out by the application of inhibitors of the NADPH oxidase (AEBSF), the HOCl scavenger taurine, the peroxynitrite scavenger FeTPPS and the singlet oxygen scavenger histidine. In some experiments for comparison instead of the single domain VHH fragments either recombinant Fab fragments or monoclonal antibodies were applied. This is indicated in the respective illustrations.
Double preparations were examined at the times shown in the text by means of phase contrast reverse microscopy for the percentage of apoptotic cells. Here, the classical apoptosis criteria described and documented in Heinzelmann and Bauer 2010 such as condensation of the nucleus, fragmentation of the nucleus, and membrane blebbing were used. Per single preparation at least 250 randomly selected cells were examined for the presence of apoptosis features. […]

B1: aCATcb0974: single domain VHH fragment that binds to and neutralizes human catalase; SEQ ID NO: 12 (protein)
VHH: MAQVQLVESGGGLVQPGGSLRLSCAASGSIFSIASMGWYRQAPGKQRDLVATITSDGSTKYADSVKGRFTISRDNAKNTMYLQMNSVKPEDAAVYYCNADADDLEPGSYDYDYWGQGTQVTVSSKKKHHHHHH
modifications: catalase binding
As for B1, the “binding to human catalase” value in test [1] is recorded as “bind to human catalase”. For the same molecule, the “neutralization (inhibition) of human catalase” value (from here on “neutralization (inhibition)”) in test [2] is “neutralize it”.

B2: aCATcb0973: single domain VHH fragment binding to human catalase, but not neutralizing; SEQ ID NO: 11 (protein)
VHH: MAEVQLVESGGGLVQPGGSLRLSCAVSGFIFNTYSMRWGRQAPGKGLEWVSSISTGGYSTYADSVKGRFTISRDNAKNLVYLQMNSLKPEDTAVYYCGWGAFVRGERPQGQGTQVTVSSKKKHHHHHH
modifications: catalase binding
B2: the “binding to human catalase” value in test [1] is “bind to human catalase”. Moreover, the “neutralization (inhibition)” value in test [2] is on record as “do not neutralize it”.

B3: aCATcb0975: single domain VHH fragment binding to human catalase, but not neutralizing; SEQ ID NO: 13 (protein)
VHH: MAQVQLVESGGGLVQPGGSLRLSCAASASIFSIYVMAWYRQAPGKQRELVATVTSGGATNYANSVKGRFTISRDNAKNTMDLQMNSLKPEDTAVYYCNAEDYYDYGLSRSKIYWGQGTQVTVSSKKKHHHHHH
modifications: catalase binding
As to B3, the “binding to human catalase” value in test [1] is “bind to human catalase”. In test [2], the “neutralization (inhibition)” value was “do not neutralize it”.

B4: aCATcb0972: single domain VHH fragment that binds to and neutralizes human catalase; SEQ ID NO: 10 (protein)
VHH: MAQVQLVESGGGLVQAGGSLRLSCAASERTFNTYGMGWFRQAPGKEREFVATISWSGDSTYYADSVKGRFTISRDNAKNTMYLQMNSLKPEDTAVYYCNANSEYGDSYWGQGTQVTVSSKKKHHHHHH
modifications: catalase binding
Regarding B4, in test [1], the “binding to human catalase” value is reported as “bind to human catalase”. In addition, in test [3] (25 μM FeTPPS), the “apoptosis induction in the presence of peroxynitrite scavenger FeTPPS” value is “only in the left part of the optimum curve results in a strong inhibition and then, changes the optimum curve of apoptosis induction into a plateau curve”. Moreover, in test [3] (100 μM AEBSF), the “apoptosis induction in the presence of NOX1 inhibitor AEBSF” value is “inhibited by the NOX1 inhibitor AEBSF in the entire range of concentrations”. For the same molecule, the “apoptosis induction in the presence of singlet oxygen scavenger histidine” value in test [3] (2 mM histidine) is reported as “does not result in an inhibition of apoptosis, but changes the optimum curve into a plateau curve”. The “apoptosis induction in the presence of HOCl scavenger taurine” value in test [3] (50 mM taurine) was “does not inhibit in the left range of concentrations of the optimum curve, but then results in a strong inhibition of the apoptosis in the entire further range of the optimum curve”. For the same molecule, the “apoptosis induction in combination with 0.005 pg/ml of the complementary single domain VHH fragment” value in test [3] (3.5 hours, FIG. 18) is listed as “noteworthy synergistic effect”. In test [3] (FIG. 14), the “concentration at which both signal paths overlap” value is 0.37 pg/mL, the “concentration from which no substantial inhibition by FeTPPS but very strong inhibition by taurine (HOCl path)” value was at least 0.75 pg/mL and the “concentrations at which singlet oxygen seems to play a role” value is above 0.75 pg/mL. Also, the “concentration range of the second increase of the apoptosis” value in test [3] (FIG. 14, not inhibited by taurine) is at least 6.2 pg/mL. Also, the “optimum range of the apoptosis induction” value in test [3] (FIGS. 14A and B, 3.5 hours) lay within 0 to 6.2 pg/mL. Moreover, the optimum conc. in test [3] (Table 1, concentration necessary for optimum apoptosis induction, taken from FIGS. 13A, 13B, 15A, 15B, 20) turned out to be 0.4 pg/mL. In test [3] (Table 2, FIG. 20 experiment, 3.5 hours), this molecule showed an optimum conc. of 0.17 pg/mL. The “apoptosis induction in MKN-45 cells” value in test [3] (increasing concentrations, 3-4 hours at 37° C., 5% CO2) is “induces apoptosis in the form of an optimum curve and a subsequent second increase”. Besides, in test [3] (inhibitor analysis), the “ROS signaling path induced” value was “via the NO/peroxynitrite and HOCl path”. Moreover, the “neutralization (inhibition)” value in test [2] is “neutralize it”.
